Seven molecules from paper PMC7585440, “Sclerostin inhibits Wnt signaling through tandem interaction with two LRP6 ectodomains” (Nature Communications, 2020) can be followed below.

Conditions in all cases: both partners purified
For assay [1], the target named is T1, human LRP6 E1E2 with a C-terminal 10× His tag, labeled with the dye NT-647 (human, UniProt O75581 21-630, dye NT-647 (Monolith NT Protein Labeling kit)).
T1 construct: Low-density lipoprotein receptor-related protein 6 (LRP6), human, ectodomains E1 and E2; the limits P21-P630 are printed for the co-expression construct; the MST construct was cloned into another vector (pAcGP67A); also called Labeled LRP6 E1E2; source: High Five insect cells (pAcGP67A), purified (Ni-NTA, HiTrapQ, SEC), no tag cleavage; not shown: His10, C-terminal, kept
T1 sequence (looked up): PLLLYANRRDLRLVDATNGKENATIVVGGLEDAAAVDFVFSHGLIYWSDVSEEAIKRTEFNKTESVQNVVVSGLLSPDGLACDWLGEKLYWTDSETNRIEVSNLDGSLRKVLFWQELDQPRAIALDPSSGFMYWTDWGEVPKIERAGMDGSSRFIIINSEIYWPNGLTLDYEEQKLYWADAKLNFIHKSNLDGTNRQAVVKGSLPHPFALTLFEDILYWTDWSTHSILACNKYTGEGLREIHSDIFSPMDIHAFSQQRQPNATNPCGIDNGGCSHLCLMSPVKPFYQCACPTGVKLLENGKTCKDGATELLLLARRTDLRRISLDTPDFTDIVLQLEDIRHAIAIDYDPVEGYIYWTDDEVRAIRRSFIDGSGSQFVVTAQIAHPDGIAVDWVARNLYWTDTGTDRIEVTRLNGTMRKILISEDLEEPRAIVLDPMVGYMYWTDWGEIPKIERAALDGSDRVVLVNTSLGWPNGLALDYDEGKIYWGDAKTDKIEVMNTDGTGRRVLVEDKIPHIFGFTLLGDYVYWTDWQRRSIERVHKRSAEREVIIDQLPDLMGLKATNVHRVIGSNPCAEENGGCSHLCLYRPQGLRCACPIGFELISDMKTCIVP
Description: MST; LRP6 E1E2 or E1 labeled with NT-647 at ~5 nM, unlabeled SOST proteins or peptides titrated; 20 mM Tris-Cl pH 7.0, 200 mM NaCl, 0.5 mg/ml BSA, 0.05% Tween 20; 22 °C; Monolith NT.115 Pico.

Assay [2] concerns the target T2, human LRP6 E1 (P21-D325) with a C-terminal His tag (human, UniProt O75581 21-325, labeled with the dye NT-647 in the MST experiments (legends: Cy-5 dye-labeled)).
T2 construct: low-density lipoprotein receptor-related protein 6 (LRP6), human, ectodomain E1, residues P21-D325; The methods name a 10x His tag; also called LPR6 E1; source: High Five insect cells, secreted, purified (Ni-NTA, HiTrapQ, SEC)
T2 sequence (looked up): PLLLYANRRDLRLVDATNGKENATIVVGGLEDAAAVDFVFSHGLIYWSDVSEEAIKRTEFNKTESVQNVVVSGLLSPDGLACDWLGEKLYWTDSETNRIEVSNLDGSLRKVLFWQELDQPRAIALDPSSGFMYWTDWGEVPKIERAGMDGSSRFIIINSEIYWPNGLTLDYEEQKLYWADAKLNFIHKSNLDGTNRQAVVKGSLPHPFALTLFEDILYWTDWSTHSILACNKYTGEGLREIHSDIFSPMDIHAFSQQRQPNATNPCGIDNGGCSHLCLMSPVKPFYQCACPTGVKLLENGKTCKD
Description: MST; labeled LRP6 E1E2 or LRP6 E1 (~5 nM) titrated with unlabeled Smo-SOST, MBP-SOST, tags or peptides; 20 mM Tris-Cl pH 7.0, 200 mM NaCl, 0.5 mg/ml BSA, 0.05% Tween 20; 22 °C; three independent experiments.

Assay [3] has as its target T3, human LRP6 E1E2 (P21-P630) with a C-terminal 10x His tag (human, UniProt O75581 21-630, labeled with the dye NT-647 in the MST experiments (legends: Cy-5 dye-labeled)).
T3 construct: low-density lipoprotein receptor-related protein 6 (LRP6), human, ectodomains E1 and E2, residues P21-P630; also called LPR6 E1E2; source: High Five insect cells, secreted, purified (Ni-NTA, HiTrapQ, SEC); for the crystal co-expressed with SOSTtr177
T3 sequence (looked up): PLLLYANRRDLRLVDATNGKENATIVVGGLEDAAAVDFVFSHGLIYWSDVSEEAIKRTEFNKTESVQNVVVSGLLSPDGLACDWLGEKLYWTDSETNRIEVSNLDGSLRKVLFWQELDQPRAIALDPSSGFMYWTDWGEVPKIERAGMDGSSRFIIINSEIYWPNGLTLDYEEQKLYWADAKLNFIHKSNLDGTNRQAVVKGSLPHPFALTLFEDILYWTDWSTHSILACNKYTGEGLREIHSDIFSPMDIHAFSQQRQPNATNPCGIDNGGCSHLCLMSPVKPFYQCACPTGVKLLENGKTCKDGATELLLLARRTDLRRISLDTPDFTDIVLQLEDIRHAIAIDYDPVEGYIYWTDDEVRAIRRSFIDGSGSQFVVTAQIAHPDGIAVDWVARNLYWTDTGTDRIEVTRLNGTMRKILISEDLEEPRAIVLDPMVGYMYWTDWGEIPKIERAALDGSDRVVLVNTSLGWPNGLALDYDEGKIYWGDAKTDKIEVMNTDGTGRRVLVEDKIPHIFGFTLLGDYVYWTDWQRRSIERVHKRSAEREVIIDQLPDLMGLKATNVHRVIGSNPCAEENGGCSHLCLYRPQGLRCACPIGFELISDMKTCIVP
The assay is described as above.

The target of a further assay is T4, LRP6 E1E2 H404K (human, UniProt O75581 21-630, H404K).
T4 construct: Low-density lipoprotein receptor-related protein 6 (LRP6), human, ectodomains E1 and E2 (parent construct P21-P630) with H404K; Mutation introduced into the LRP6 E1E2 of the crystallised complex; also called LRP6 E1E2 with the H404K mutation; source: purified as a complex with SOST_(tr177) N175K
T4 sequence (looked up): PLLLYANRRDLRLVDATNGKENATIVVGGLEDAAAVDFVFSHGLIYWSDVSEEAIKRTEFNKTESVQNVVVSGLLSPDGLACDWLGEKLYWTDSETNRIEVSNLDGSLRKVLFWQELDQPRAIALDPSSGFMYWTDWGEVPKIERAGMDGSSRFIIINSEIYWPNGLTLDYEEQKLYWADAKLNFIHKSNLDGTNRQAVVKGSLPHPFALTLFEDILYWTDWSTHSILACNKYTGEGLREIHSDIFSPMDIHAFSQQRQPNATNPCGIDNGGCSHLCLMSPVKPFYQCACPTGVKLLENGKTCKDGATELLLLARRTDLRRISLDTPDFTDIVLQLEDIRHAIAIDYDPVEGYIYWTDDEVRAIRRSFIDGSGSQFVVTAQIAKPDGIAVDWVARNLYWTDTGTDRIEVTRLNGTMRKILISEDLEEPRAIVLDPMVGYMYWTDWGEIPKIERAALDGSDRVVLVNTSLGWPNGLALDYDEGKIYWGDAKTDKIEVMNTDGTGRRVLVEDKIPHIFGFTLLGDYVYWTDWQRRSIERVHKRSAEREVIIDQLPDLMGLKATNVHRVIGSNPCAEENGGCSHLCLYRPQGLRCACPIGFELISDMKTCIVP
Description: cross-linking; purified LRP6 E1E2 H404K–SOST_(tr177) N175K complex with BS3 at room temperature for 30 min; ~90 kDa band cut out, chymotrypsin, LC-MS/MS.

Assay [4] addresses T5, human LRP6 E1E2 (P21–P630) with a C-terminal 10× His tag (human, UniProt O75581 21-630).
T5 construct: Low-density lipoprotein receptor-related protein 6 (LRP6), human, ectodomains E1 and E2, residues P21-P630; Unlabelled form: crystal, SEC-MALS and fluorescence-SEC; An anti-His-tag antibody was used for the western blots of the fluorescence-SEC experiment; also called LRP6 ectodomains 1 and 2; source: High Five insect cells (baculovirus), secreted, purified (Ni-NTA, HiTrapQ, SEC); co-expressed …
T5 sequence (looked up): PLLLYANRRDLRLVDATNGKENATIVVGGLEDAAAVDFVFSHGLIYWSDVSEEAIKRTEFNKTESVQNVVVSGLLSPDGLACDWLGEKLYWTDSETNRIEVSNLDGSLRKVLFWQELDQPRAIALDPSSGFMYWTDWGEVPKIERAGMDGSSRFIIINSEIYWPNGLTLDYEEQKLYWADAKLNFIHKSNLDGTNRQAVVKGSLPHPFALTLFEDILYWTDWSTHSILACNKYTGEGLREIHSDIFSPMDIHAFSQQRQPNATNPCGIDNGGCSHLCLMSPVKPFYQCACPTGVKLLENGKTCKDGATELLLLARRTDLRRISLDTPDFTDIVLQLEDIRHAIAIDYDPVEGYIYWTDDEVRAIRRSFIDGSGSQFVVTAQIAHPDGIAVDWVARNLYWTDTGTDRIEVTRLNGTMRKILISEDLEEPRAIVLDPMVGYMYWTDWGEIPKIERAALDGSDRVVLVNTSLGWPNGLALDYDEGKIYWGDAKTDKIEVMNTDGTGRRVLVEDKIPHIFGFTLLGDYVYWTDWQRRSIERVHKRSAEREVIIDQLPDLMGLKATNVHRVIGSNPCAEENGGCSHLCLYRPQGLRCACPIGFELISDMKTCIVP
The assay is described as follows: SEC-MALS; purified complex at 1 mg/ml on Superdex 200 increase 5/150 GL; 50 mM Tris pH 8.5, 150 mM NaCl; protein conjugate method.

B1: SOST∆loop2 with an N-terminal His6-SUMO tag (natural protein)
chain: QGWQAFKNDATEIIPELGEYPEPPPELENNKTMNRAENGGRPPHHPFETKDVSEYSCRELHFTRYVTDGPCRSAKPVTELVCSGQCGPAGSGGSGPDFRCIPDRYRAQRVQLLCPGGEAPRARKVRLVASCKCKRLTRFHNQSELKDFGTEAARPQKGRKPRPRARSAKANQAELENAY
What is called Kd is the equilibrium constant for the complex coming apart. Low values mean a tighter complex, high ones a looser complex. The molecule B1 displayed a Kd in assay [1] of 1000 nM.

B2: human SOSTtr169 (Q24-R169) with an N-terminal His6-SUMO tag (domain or fragment)
chain: QGWQAFKNDATEIIPELGEYPEPPPELENNKTMNRAENGGRPPHHPFETKDVSEYSCRELHFTRYVTDGPCRSAKPVTELVCSGQCGPARLLPNAIGRGKWWRPSGPDFRCIPDRYRAQRVQLLCPGGEAPRARKVRLVASCKCKR
notes: sclerostin (SOST), human, residues Q24-R169; also called Smo-SOSTtr169; source: High Five insect cells, secreted, purified; tag not cleaved; not shown: His6, N-terminal, kept; SUMO, N-terminal, kept
Molecule B2 came in with a Kd in assay [2] of 870 nM.

B3: SOST_(tr169) with an N-terminal His6-SUMO tag (domain or fragment, human, UniProt Q9BQB4 24-169, looked up)
chain: QGWQAFKNDATEIIPELGEYPEPPPELENNKTMNRAENGGRPPHHPFETKDVSEYSCRELHFTRYVTDGPCRSAKPVTELVCSGQCGPARLLPNAIGRGKWWRPSGPDFRCIPDRYRAQRVQLLCPGGEAPRARKVRLVASCKCKR
notes: has neither the HNQS region nor the basic-residue cluster; also called Smo-SOST mutant tr169; source: High Five insect cells (pAcGP67A), purified (Ni-NTA, HiTrapQ, SEC), no tag cleavage; not shown: His6, N-terminal, kept; SUMO, N-terminal, kept
As to B3, the Kd in assay [1] is 900 nM.

B4: human SOSTtr177 (Q24-S177) with an N-terminal His6-SUMO tag (domain or fragment)
chain: QGWQAFKNDATEIIPELGEYPEPPPELENNKTMNRAENGGRPPHHPFETKDVSEYSCRELHFTRYVTDGPCRSAKPVTELVCSGQCGPARLLPNAIGRGKWWRPSGPDFRCIPDRYRAQRVQLLCPGGEAPRARKVRLVASCKCKRLTRFHNQS
notes: sclerostin (SOST), human, residues Q24-S177; also called Smo-SOSTtr177; source: High Five insect cells, secreted, purified; tag not cleaved; not shown: His6, N-terminal, kept; SUMO, N-terminal, kept
In assay [3], B4 returned a Kd of 680 nM. This counts as sub-micromolar.

B5: SOST_(tr177) N175K (domain or fragment, human, UniProt Q9BQB4 24-177, looked up)
chain: QGWQAFKNDATEIIPELGEYPEPPPELENNKTMNRAENGGRPPHHPFETKDVSEYSCRELHFTRYVTDGPCRSAKPVTELVCSGQCGPARLLPNAIGRGKWWRPSGPDFRCIPDRYRAQRVQLLCPGGEAPRARKVRLVASCKCKRLTRFHKQS
notes: Sclerostin (SOST), human, residues Q24-S177 (parent SOST_(tr177)) with N175K; also called SOSTtr177 with the N175K mutation; source: purified as a complex with LRP6 E1E2 H404K
With B5, the binding result with LRP6 E1E2 H404K is given as “binds”.

B6: human SOST_(tr177) (Q24-S177) (domain or fragment, UniProt Q9BQB4 24-177, looked up)
chain: QGWQAFKNDATEIIPELGEYPEPPPELENNKTMNRAENGGRPPHHPFETKDVSEYSCRELHFTRYVTDGPCRSAKPVTELVCSGQCGPARLLPNAIGRGKWWRPSGPDFRCIPDRYRAQRVQLLCPGGEAPRARKVRLVASCKCKRLTRFHNQS
notes: Sclerostin (SOST), human, residues Q24-S177; N175 not glycosylated in this construct; also called crystallization construct; not shown: His6, N-terminal, cleaved; MBP, N-terminal, cleaved
By stoichiometry N is commonly meant a count of units in the complex or per binding partner. Consider B6, for which, in assay [4], the “stoichiometry N” value was 1.

B7: human SOST C-terminal tail peptide (residues 170–213) (peptide)
chain: not shown
B7: binding in assay [1] was put at a Kd of 5800 nM.
